Results reported in PMC6625990, “Structural underpinnings of Ric8A function as a G-protein α-subunit chaperone and guanine-nucleotide exchange factor” (Nature Communications, 2019).
Changes are numbered by the printed parent chain. Numbers in names are those of the source.

B1: bovine Ric8A1–492, Q5E9J8 F169R (protein)
chain: MEPRAVADALETGEEDVVMEALRAYNRENSQSFTFDDAQQEDRKRLAKLLVSVLEQGLPPSRRVIWLQSIRILSRDRSCLDSFTSRRSLQALACYAGISASQGSVPEPLNMDVVLESLKCLCNLVLSSPVAQALAAEAGLVVRLAERVGLCRQSSFPHDVQFFDLRLLRLLTALRTDVRQQLFQELQGVRLLTRALELTLGMTEGERHPELLPPQETERAMEILKVLFNITFDSIKREVDEEDAALYRHLGTLLRHCVMLAAAGDRTEELHGHAVNLLGNLPVKCLDVLLTLEPHEGSLEFLGVNMDVIRVLLSFMEKRLHQTHRLKESVAPVLSVLTECARMHRPARKFLKAQVLPPLRDVRTRPEVGELLRNKLVRLMTHLDTDVKRVAAEFLFVLCSESVPRFIKYTGYGNAAGLLAARGLMAGGRPEGQYSEDEDTDTDEYKEAKASINPVTGRVEEKPPNPMEGMTEEQKEHEAMKLVNMFDKLSRH
B2: bovine Ric8A1–492, Q5E9J8 A173W (protein)
chain: B1 chain with R169F, A173W

Tests used:
[1] = target: full-length Avi-tagged Gαt, P04695; test: BLI (steady-state); conditions: chain shown with the change
[2] = target: full-length Avi-tagged Gαt, P04695; test: BLI (steady-state binding curve); conditions: chain shown with the change; Avi-tagged Gαt coupled to a streptavidin biosensor; parent: 24 nM

Chain of full-length Avi-tagged Gαt, P04695 (P04695 whole entry): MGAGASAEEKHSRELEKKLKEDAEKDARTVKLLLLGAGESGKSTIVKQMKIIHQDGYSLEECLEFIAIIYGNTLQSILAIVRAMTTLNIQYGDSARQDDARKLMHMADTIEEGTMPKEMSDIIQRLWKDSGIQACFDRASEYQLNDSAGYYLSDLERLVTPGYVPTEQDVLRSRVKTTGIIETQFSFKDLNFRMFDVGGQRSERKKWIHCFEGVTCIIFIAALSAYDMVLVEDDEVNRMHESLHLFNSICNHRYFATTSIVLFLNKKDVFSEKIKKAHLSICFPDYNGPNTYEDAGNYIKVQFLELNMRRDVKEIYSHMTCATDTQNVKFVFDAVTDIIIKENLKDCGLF

Binder	Kd [1] [nM]	Kd [2] [nM]
B1	1800	1700
B2	> 10000	> 10000
